Source: patent publication US20100272731A1 (SCHERING, published 2010)
Numbering of substitutions follows the chain as printed. “And” between values parts separate entries of the source, which are not always exact repeats. Equal entries are not always repeated.

Tests used:
human IL-23 [1] = target: T1, human IL-23 (human, UniProt P29460 23-328); experiment: cell-based or functional assay
T1 sequence 1: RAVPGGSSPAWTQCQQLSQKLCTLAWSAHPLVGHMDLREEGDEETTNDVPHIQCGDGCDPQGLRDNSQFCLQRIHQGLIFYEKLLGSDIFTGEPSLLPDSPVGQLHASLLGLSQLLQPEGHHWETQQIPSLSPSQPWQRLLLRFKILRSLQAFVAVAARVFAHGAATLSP
T1 sequence 2: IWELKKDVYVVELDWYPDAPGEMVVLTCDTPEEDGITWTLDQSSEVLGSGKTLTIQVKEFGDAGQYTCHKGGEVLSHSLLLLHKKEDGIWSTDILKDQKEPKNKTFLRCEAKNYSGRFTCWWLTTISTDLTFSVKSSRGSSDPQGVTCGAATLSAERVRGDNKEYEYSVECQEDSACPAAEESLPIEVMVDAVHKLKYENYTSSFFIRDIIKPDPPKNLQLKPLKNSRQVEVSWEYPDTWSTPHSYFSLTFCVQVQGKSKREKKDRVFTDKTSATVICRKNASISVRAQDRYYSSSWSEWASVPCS

human IL-23 [2] = target: T1, human IL-23; experiment: BIAcore (SPR), antibody amine-coupled to CM5 chip, IL-23 as analyte; second replicate determination
Procedure: (§1) BIAcore determinations are performed essentially as described at Example 4 of commonly assigned U.S. Patent Application Publication No. 2007/0048315. Briefly, ligands (anti-IL-23 mAbs) are immobilized on a BlAcore CM5 sensor chip using standard amine-coupling procedure. IL-23 is diluted in PBS to produce various concentrations. Kinetic constants for the various interactions are determined using BIAevaluation software 3.1. The Kd is determined using the calculated dissociation and association rate constants.
Table 4 provides the Kd values as determined by BlAcore, including replicate determinations.

human IL-23 [3] = target: T1, human IL-23; experiment: BIAcore (SPR), antibody amine-coupled to CM5 chip, IL-23 as analyte; first replicate determination
Procedure: as §1

human IL-23 [4] = target: T1, human IL-23; experiment: cell-based or functional assay; remark: listed apart in the source
human IL-23 [5] = target: T1, human IL-23; experiment: BIAcore (SPR), antibody amine-coupled to CM5 chip, IL-23 as analyte
Procedure: as §1

human IL-23 [6] = target: T1, human IL-23; experiment: cell-based or functional assay; remark: listed apart in the source
human IL-23 [7] = target: T1, human IL-23; experiment: BIAcore (SPR), essentially as in Example 4
Procedure: as §1

[8] = target: T2, non-linked (native) human IL-23 comprising two disulfide-linked chains, human p19 and human p40 (human, UniProt P29460 23-328); experiment: KinExA, antibody pre-incubated with native human IL-23 in solution; second replicate determination
T2 sequence 1: T1 sequence 1
T2 sequence 2: T1 sequence 2
Procedure: (§2) The equilibrium dissociation constant (Kd) for anti human IL-23 antibodies is determined using the KinExA 3000 instrument. Sapidyne Instruments Inc., Boise Id., USA. KinExA uses the principle of the Kinetic Exclusion Assay method based on measuring the concentration of uncomplexed antibody in a mixture of antibody, antigen and antibody-antigen complex. The concentration of free antibody is measured by exposing the mixture to a solid-phase immobilized antigen for a very brief period of time. In practice, this is accomplished by flowing the solution phase antigen-antibody mixture past antigen-coated particles trapped in a flow cell. Data generated by the instrument are analyzed using custom software. Equilibrium constants are calculated using a mathematical theory based on the following assumptions: […]
(§3) Binding of anti-IL-23p19 antibodies is assessed in a competition binding assay, in which antibodies are pre-incubated with non-linked (native) human IL-23 comprising two disulfide-linked chains, human p19 (SEQ ID NO: 47) and human p40 (GenBank Accession No. P29460), at a series of concentrations. […] The amount of antibody captured by the PMMA particles is then detected using a fluorescently labeled secondary antibody.

[9] = target: T2, non-linked (native) human IL-23 …; experiment: KinExA, antibody pre-incubated with native human IL-23 in solution; third replicate determination
Procedure: as §2, §3

[10] = target: T2, non-linked (native) human IL-23 …; experiment: KinExA, antibody pre-incubated with native human IL-23 in solution; first replicate determination (64 ± 40)
Procedure: as §2, §3

human IL-23 [11] = target: T1, human IL-23; experiment: BIAcore (SPR), antibody amine-coupled to CM5 chip, IL-23 as analyte; first determination, upper end of range 72-104
Procedure: as §1

human IL-23 [12] = target: T1, human IL-23; experiment: BIAcore (SPR), antibody amine-coupled to CM5 chip, IL-23 as analyte; first determination, lower end of range 72-104
Procedure: as §1

human IL-23 [13] = target: T1, human IL-23; experiment: BIAcore (SPR), antibody amine-coupled to CM5 chip, IL-23 as analyte; third determination, upper end of range 81-129
Procedure: as §1

[14] = target: T2, non-linked (native) human IL-23 …; experiment: KinExA, antibody pre-incubated with native human IL-23 in solution; fourth replicate determination
Procedure: as §2, §3

human IL-23 [15] = target: T1, human IL-23; experiment: BIAcore (SPR), antibody amine-coupled to CM5 chip, IL-23 as analyte; second determination, upper end of range 68-100
Procedure: as §1

human IL-23 [16] = target: T1, human IL-23; experiment: BIAcore (SPR), antibody amine-coupled to CM5 chip, IL-23 as analyte; third determination, lower end of range 81-129
Procedure: as §1

human IL-23 [17] = target: T1, human IL-23; experiment: BIAcore (SPR), antibody amine-coupled to CM5 chip, IL-23 as analyte; second determination, lower end of range 68-100
Procedure: as §1

B1: murine antibody 13B8 (mouse IgG1/kappa) (antibody, V domains shown)
VH: HVQLQQSGPELVRPGASVELSCKASGYIFITYWMTWMKQRPGQGLEWIGQIFPASGSADYNEMFEGKATLTVDTSSNTAYMQLSSLTSEDSAVYFCARGGGGFAYWGQGTLVTVSA
VL: DIQMTQSPASLSASVGETVTITCRTSENIYSYLAWYQQKQGKSPQLLVYNAKTLAEGVPSRFSGSGSGTQFSLKINRLQPEDFGRYFCQHHYGIPFTFGSGTKLEIKR
notes: also called m13B8; mouse 13B8
IC50 for blocking of Ba/F3 cell proliferation (human IL-23 [1]): 700 pM
Kd (human IL-23 [2]): 0.228 nM
Kd (human IL-23 [3]): 0.173 nM
Splenocyte assay IC50 (IL-17 production by mouse splenocytes) (human IL-23 [4]): 64 pM and 28 pM and 54 pM

B2: humanized anti-IL-23p19 antibody 13B8-b (antibody, human IgG1, kappa, V domains shown)
VH: QVQLVQSGAEVKKPGASVKVSCKASGYIFITYWMTWVRQAPGQGLEWMGQIFPASGSADYNEKFEGRVTMTTDTSTSTAYMELRSLRSDDTAVYYCARGGGGFAYWGQGTLVTVSS
VL: DIQMTQSPSSLSASVGDRVTITCRTSENIYSYLAWYQQKPGKAPKLLIYNAKTLAEGVPSRFSGSGSGTDFTLTISSLQPEDFATYYCQHHYGIPFTFGQGTKVEIKR
notes: also called hum13B8-b; Hum 13B8-b
IC50 for blocking of Ba/F3 cell proliferation (human IL-23 [1]): 1200 pM and 1100 pM
Kd (human IL-23 [5]): 0.077 nM and 0.129 nM and 0.069 nM and 0.116 nM
IC50 in the Ba/F3 proliferation assay (340 pM IL-23) (human IL-23 [6]): 187 pM
IC50 in the KIT225 STAT-3 phosphorylation assay (138 pM human IL-23) (human IL-23 [6]): 130 pM
IC50 in the human splenocyte assay (IFN-γ production, 170 pM human IL-23) (human IL-23 [6]): 59 to 144 pM
Kd (human IL-23 [7]): 0.297 nM
Splenocyte assay IC50 (IL-17 production by mouse splenocytes) (human IL-23 [4]): 110 pM and 221 pM

B3: humanized anti-IL-23p19 antibody 13B8-a (antibody, human IgG1, kappa, V domains shown)
VH: B2 VH with K63M
VL: B2 VL
notes: also called hum13B8-a; h13B8-a
IC50 for blocking of Ba/F3 cell proliferation (human IL-23 [1]): 1100 pM
Kd [8]: 0.11 nM
Kd [9]: 0.365 nM
Kd [10]: 0.064 nM
Kd (human IL-23 [11]): ≤ 0.104 nM
Kd (human IL-23 [12]): ≥ 0.072 nM
Kd (human IL-23 [13]): ≤ 0.129 nM
Kd [14]: 0.447 nM
Kd (human IL-23 [15]): ≤ 0.1 nM
Kd (human IL-23 [16]): ≥ 0.081 nM
Kd (human IL-23 [17]): ≥ 0.068 nM

B4: humanized anti-IL-23p19 antibody 13B8-c (antibody, human IgG1, kappa, V domains shown)
VH: B2 VH with N61A, E62Q, F64L, E65Q
VL: B2 VL
notes: also called hum13B8-c; h13B8-c
IC50 for blocking of Ba/F3 cell proliferation (human IL-23 [1]): 1100 pM and 2200 pM
Kd (human IL-23 [5]): 0.092 to 0.153 nM
Splenocyte assay IC50 (IL-17 production by mouse splenocytes) (human IL-23 [4]): 515 pM
